From article PMC5399476

Target: wild-type core streptavidin
Assay: SDS-PAGE with fluorescence scanning

## wild-type core streptavidin (natural protein)
  stoichiometry N: 4
